Experiments:
[1] = molecular target: T1, human IL-17A (generated at UCB) (Homo sapiens, UniProt Q16552); test: cell-based or functional assay
[2] = molecular target: T2, human IL-17F (R&D Systems) (Homo sapiens, UniProt Q96PD4); test: cell-based or functional assay
[3] = molecular target: human IL-17A/F heterodimer (Homo sapiens, UniProt Q16552;Q96PD4); test: cell-based or functional assay
[4] = molecular target: T3, cynomolgus macaque IL-17F (Macaca fascicularis, UniProt G7P4V0); test: SPR; Biacore T200, CM5 chip; IgG1 captured by F(ab')2 fragment-specific or Fcγ-specific goat anti-human IgG F(ab')2; cytokine titrated over it (10 nM IL-17F or 5 nM IL-17A and IL-17A/F downwards); HBS-EP pH 7.4, 25°C; settings: both partners purified
T3 construct: interleukin-17F, cynomolgus macaque; source: generated at UCB

[5] = molecular target: T4, cynomolgus macaque IL-17A (Macaca fascicularis, UniProt A0A2K5TTB0); test: as above; settings: both partners purified
T4 construct: interleukin-17A, cynomolgus macaque; source: generated at UCB

[6] = molecular target: T1, human IL-17A (generated at UCB); test: SPR; Biacore T200, CM5 chip; Fab captured on immobilised anti-human F(ab')2; cytokine titrated over it; HBS-EP pH 7.4, 25°C; settings: both partners purified
[7] = molecular target: T2, human IL-17F (R&D Systems); test: as above; settings: both partners purified

T1 sequence (Q16552 24-155): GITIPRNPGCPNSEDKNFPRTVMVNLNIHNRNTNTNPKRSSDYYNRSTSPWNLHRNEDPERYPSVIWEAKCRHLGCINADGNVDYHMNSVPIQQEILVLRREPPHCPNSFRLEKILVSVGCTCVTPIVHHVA
T2 sequence (Q96PD4 31-163): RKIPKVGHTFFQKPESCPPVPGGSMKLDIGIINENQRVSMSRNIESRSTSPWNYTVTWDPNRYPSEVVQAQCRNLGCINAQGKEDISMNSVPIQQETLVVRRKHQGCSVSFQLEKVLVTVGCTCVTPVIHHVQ
Chain of human IL-17A/F heterodimer (Q16552 24-155, chain 1 of 2): as the sequence (Q16552 24-155) above
Chain of human IL-17A/F heterodimer (Q96PD4 31-163, chain 2 of 2): as the sequence (Q96PD4 31-163) above

| Binder | IC50 of neutralization of IL-17A (1 ng/mL, with TNF 1 ng/mL): IL-6 production by NHDFs [1] | IC50 of neutralization of IL-17F (30 ng/mL, with TNF 1 ng/mL): IL-6 production by NHDFs [2] | IC50 of neutralization of IL-17A/F (30 ng/mL, with TNF 1 ng/mL): IL-6 production by NHDFs [3] | Kd [4] | Kd [5] | Kd [6] | Kd [7] |
| --- | --- | --- | --- | --- | --- | --- | --- |
| 496.g3 IgG1 (bimekizumab) (antibody, V domains shown) VH: EVQLVESGGGLVQPGGSLRLSCAASGFTFSDYNMAWVRQAPGKGLEWVATITYEGRNTYYRDSVKGRFTISRDNAKNSLYLQMNSLRAEDTAVYYCASPPQYYEGSIYRLWFAHWGQGTLVTVSS VL: AIQLTQSPSSLSASVGDRVTITCRADESVRTLMHWYQQKPGKAPKLLIYLVSNSEIGVPDRFSGSGSGTDFRLTISSLQPEDFATYYCQQTWSDPWTFGQGTKVEIK | 0.0004 µg/mL | 0.0321 µg/mL | 0.0489 µg/mL | 0.345 nM | 0.0123 nM |  |  |
| 496.g1 Fab (Fab, V domains shown) VH: EVQLVESGGGLVQPGGSLRLSCAASGFTFSDYNMAWVRQAPGKGLEWVATITYEGRNTYYRDSVKGRFTISRDNAKNSLYLQMNSLRAEDTAVYYCASPPQYYEGSIYRLWFAHWGQGTLVTVSS VL: AIQLTQSPSSLSASVGDRVTITCRADESVTTLMHWYQQKPGKAPKLLIYLVSNRESGVPSRFSGSGSGTDFTLTISSLQPEDFATYYCQQTWSDPWTFGQGTKVEIK |  |  |  |  |  | 0.0292 nM | 1.51 nM |
| 496.g3 Fab (Fab, V domains shown) VH: EVQLVESGGGLVQPGGSLRLSCAASGFTFSDYNMAWVRQAPGKGLEWVATITYEGRNTYYRDSVKGRFTISRDNAKNSLYLQMNSLRAEDTAVYYCASPPQYYEGSIYRLWFAHWGQGTLVTVSS VL: AIQLTQSPSSLSASVGDRVTITCRADESVRTLMHWYQQKPGKAPKLLIYLVSNSEIGVPDRFSGSGSGTDFRLTISSLQPEDFATYYCQQTWSDPWTFGQGTKVEIK |  |  |  |  |  | 0.0072 nM |  |

Reference: PMC7473305 (Frontiers in Immunology, 2020)
